Reference: the supplement of paper PMC10567573

B1: STEAP1 (parent)
chain: WMLTRKQFGLLSFFFAVLHAIYSL

Variants of: B1
Assay: protein stability index of a GFP-peptide fusion (GPS, HEK-293T) (PSI 1-6); higher = more stable
Details: c terminus: a fixed tail appended
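Note: lentivirally expressed fusions sorted by FACS into six bins by GFP to DsRed ratio, PSI derived from sequencing read proportions per bin multiplied by bin number.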

Variant | protein stability index
WMLTRKQFGLLSFFFAVLHAAYSL [I21A] | 3.66
WMLTRKQFGLLSFFFAVLHALYSL [I21L] | 3.18
WMLTRKQFGLLSFFFAVLHAQYSL [I21Q] | 1.61
WMLTRKQFGLLSFFFAVLHAIYSG [L24G] | 2.74
WMLTRKQFGLLSFFFAVLHAIYSE [L24E] | 1.4
WMLTRKQFGLLSFFFAVLHAIYSD [L24D] | 2.7
WMLTRKQFGLLSFFFAVLHAIYSY [L24Y] | 2
WMLTRKQFGLLSFFFAVLHAIYSK [L24K] | 3.44
WMLTRKQFGLLSFFFAVLHAIYSS [L24S] | 2.14
WMLTRKQFGLLSFFFAVLHAIYSH [L24H] | 1.83
WMLTRKQFGLLSFFFAVLHAIYSR [L24R] | 1.84
WMLTRKQFGLLSFFFAVLHAIYSC [L24C] | 2
WMLTRKQFGLLSFFFAVLHAIYSA [L24A] | 1.91
WMLTRKQFGLLSFFFAVLHAIYSP [L24P] | 2.08
WMLTRKQFGLLSFFFAVLHAIYST [L24T] | 2.26
WMLTRKQFGLLSFFFAVLHAIYSW [L24W] | 2.13
WMLTRKQFGLLSFFFAVLHAIYSI [L24I] | 1.86
WMLTRKQFGLLSFFFAVLHAIYSV [L24V] | 2.27
WMLTRKQFGLLSFFFAVLHAIYSM [L24M] | 1.97
WMLTRKQFGLLSFFFAVLHAIYSF [L24F] | 1.46
WMLTRKQFGLLSFFFAVLHAIYSN [L24N] | 1.98
WMLTRKQFGLLSFFFAVLHAIYSQ [L24Q] | 1.94
WMLTRKQFGLLSFFFAVDHAIYSL [L18D] | 3.5
WMLTRKQFGLLSFFFAVYHAIYSL [L18Y] | 2.13

Variant | protein stability index
WMLTRKQFGLLSFFFAVEHAIYSL [L18E] | 3.98
WMLTRKQFGLLSFFFAVVHAIYSL [L18V] | 1.66
WMLTRKQFGLLSFFFAVKHAIYSL [L18K] | 3.01
WMLTRKQFGLLSFFFAVHHAIYSL [L18H] | 2.03
WMLTRKQFGLLSFFFAVPHAIYSL [L18P] | 3.09
WMLTRKQFGLLSFFFAVSHAIYSL [L18S] | 1.86
WMLTRKQFGLLSFFFAVWHAIYSL [L18W] | 1.74
WMLTRKQFGLLSFFFAVFHAIYSL [L18F] | 1.63
WMLTRKQFGLLSFFFAVGHAIYSL [L18G] | 2.66
WMLTRKQFGLLSFFFAVQHAIYSL [L18Q] | 2.82
WMLTRKQFGLLSFFFAVIHAIYSL [L18I] | 2
WMLTRKQFGLLSFFFAVTHAIYSL [L18T] | 1.92
WMLTRKQFGLLSFFFAVRHAIYSL [L18R] | 1.8
WMLTRKQFGLLSFFFAVLHAIYQL [S23Q] | 1.39
WMLTRKQFGLLSFFFAVLHAIYDL [S23D] | 1.95
WMLTRKQFGLLSFFFAVLHAIYML [S23M] | 2.3
WMLTRKQFGLLSFFFAVLHAIYPL [S23P] | 1.89
WMLTRKQFGLLSFFFAVLHAIYKL [S23K] | 2.01
WMLTRKQFGLLSFFFAVLHAIYYL [S23Y] | 2.37
WMLTRKQFGLLSFFFAVLHAIYCL [S23C] | 1.75
WMLTRKQFGLLSFFFAVLHAIYVL [S23V] | 1.94
WMLTRKQFGLLSFFFAVLHAIYLL [S23L] | 1.27
WMLTRKQFGLLSFFFAVLHAIYTL [S23T] | 1.55
WMLTRKQFGLLSFFFAVLHAIYRL [S23R] | 2.43

Variant | protein stability index
WMLTRKQFGLLSFFFAVLHAIYNL [S23N] | 2.21
WMLTRKQFGLLSFFFAVLHAIYGL [S23G] | 1.48
WMLTRKQFGLLSFFFAVLHAIYAL [S23A] | 1.36
WMLTRKQFGLLSFFFAVLHAIYHL [S23H] | 1.71
WMLTRKQFGLLSFFFAVLHAIYWL [S23W] | 2
WMLTRKQFGLLSFFFAVLHAIYIL [S23I] | 1.92
WMLTRKQFGLLSFFFAVLHAIYEL [S23E] | 1.49
WMLTRKQFGLLSFFFAVLHAIYFL [S23F] | 1.79
WMLTRKQFGLLSFFFAVLCAIYSL [H19C] | 2.94
WMLTRKQFGLLSFFFAVLQAIYSL [H19Q] | 2.22
WMLTRKQFGLLSFFFAVLPAIYSL [H19P] | 3.26
WMLTRKQFGLLSFFFAVLTAIYSL [H19T] | 2.67
WMLTRKQFGLLSFFFAVLEAIYSL [H19E] | 1.65
WMLTRKQFGLLSFFFAVLNAIYSL [H19N] | 1.89
WMLTRKQFGLLSFFFAVLDAIYSL [H19D] | 1.82
WMLTRKQFGLLSFFFAVLMAIYSL [H19M] | 3.02
WMLTRKQFGLLSFFFAVLGAIYSL [H19G] | 2.77
WMLTRKQFGLLSFFFAVLIAIYSL [H19I] | 2.58
WMLTRKQFGLLSFFFAVLLAIYSL [H19L] | 2.59
WMLTRKQFGLLSFFFAVLWAIYSL [H19W] | 3.67
WMLTRKQFGLLSFFFAVLAAIYSL [H19A] | 3.76
WMLTRKQFGLLSFFFAVLKAIYSL [H19K] | 2.16
WMLTRKQFGLLSFFFAVLRAIYSL [H19R] | 1.74
WMLTRKQFGLLSFFFAVLFAIYSL [H19F] | 2.76

Variant | protein stability index
WMLTRKQFGLLSFFFAVLVAIYSL [H19V] | 3.14
WMLTRKQFGLLSFFFAVLSAIYSL [H19S] | 2.34
WMLTRKQFGLLSFFFAVLYAIYSL [H19Y] | 3.25
WMLTRKQFGLLSFFFAVLHAIHSL [Y22H] | 2.1
WMLTRKQFGLLSFFFAVLHAIFSL [Y22F] | 1.56
WMLTRKQFGLLSFFFAVLHAIWSL [Y22W] | 1.99
WMLTRKQFGLLSFFFAVLHAIASL [Y22A] | 1.58
WMLTRKQFGLLSFFFAVLHAIMSL [Y22M] | 2.45
WMLTRKQFGLLSFFFAVLHAICSL [Y22C] | 2.43
WMLTRKQFGLLSFFFAVLHAIESL [Y22E] | 2.93
WMLTRKQFGLLSFFFAVLHAILSL [Y22L] | 1.79
WMLTRKQFGLLSFFFAVLHAIVSL [Y22V] | 2.48
WMLTRKQFGLLSFFFAVLHAIRSL [Y22R] | 2.46
WMLTRKQFGLLSFFFAVLHAISSL [Y22S] | 1.63
WMLTRKQFGLLSFFFAVLHAINSL [Y22N] | 1.34
WMLTRKQFGLLSFFFAVLHAITSL [Y22T] | 2.03
WMLTRKQFGLLSFFFAVLHAIPSL [Y22P] | 2.29
WMLTRKQFGLLSFFFAVLHAIGSL [Y22G] | 2.2
WMLTRKQFGLLSFFFAVLHAIISL [Y22I] | 1.1
WMLTRKQFGLLSFFFAVLHAIKSL [Y22K] | 2.29
WMLTRKQFGLLSFFFAVLHAIDSL [Y22D] | 2.97
WMLTRKQFGLLSFFFAVLHAIQSL [Y22Q] | 2.21
